Columns and labels:
[1] = system: S. aureus NRS-14 peptidoglycan; test: dinitrosalicylic acid (DNSA) assay for reducing sugars; assay type: biochemical, Staphylococcus aureus; details: 50 μg/ml, one hour, 37° C.
[2] = system: stationary phase S. aureus NRS-14; test: turbidity reduction assay (lytic activity); assay type: cell-based, Staphylococcus aureus; details: for decrease in optical density: 15 minutes
Method: (§1) Lytic activity was based on turbidity reduction assay (Nelson D C et al. (2012) Endolysins as antimicrobials. Adv Virus Res 83:299-365). Briefly, bacterial cells were centrifuged (4,000 RPM, 5 minutes, 4° C.), re-suspended in buffer and mixed 1:1 (v/v) with endolysin to a final OD600=1. OD600 readings were taken every 15 seconds for 20 minutes at 37° C. Endolysin activity was equated to the Vmax dictated by the linear portion of the resulting killing curve. Each experiment was performed in triplicate.
To determine dose response, PlyGRCS was serially diluted and each dosage (100 μl) was added in triplicate to a 96-well polystyrene microtiter plate (Nest Biotech Co, Ltd) just before addition of bacterial cells (100 μl) according to the turbidity reduction assay described above. For optimum pH determination, bacterial cells were suspended in 40 mM boric acid/phosphoric acid (BP) buffer, pH 3-11, and were challenged against PlyGRCS. The influence of NaCl on PlyGRCS activity was tested in BP buffer at the experimentally determined pH optimum using the same assay. The effect of divalent cations was determined using the turbidity reduction assay with several modifications. First, PlyGRCS was incubated at room temperature in PBS or PBS supplemented with 5 mM EDTA for 10 minutes. Second, the EDTA-treated samples received either no further treatment, or were supplemented with 6 mM CaCl2 or 6 mM MgCl2. Finally, the lytic active of the samples was then immediately assayed and compared to PlyGRCS in PBS prior to EDTA inactivation. Kinetic stability was evaluated (Son B et al. (2012) Characterization of LysB4, an endolysin from the Bacillus cereus-infecting bacteriophage B4. BMC Microbiol 12:33) with minor modifications. Lytic assays were performed in optimal conditions after PlyGRCS was incubated at indicated temperatures for 30 minutes and subsequently recovered on ice for 5 minutes.

[3] = system: S. aureus cell walls (purified peptidoglycan); details: 50 μg/ml, one hour, 37° C.
From the text: To determine an increase in free amine groups, the trinitrophenylation reaction was used, originally described by Satake et al. and modified by Mokrasch (Satake M et al. (1960) Incorporation of leucine into microsomalprotein by a cell-free system of guinea-pig brain. Biochim Biophys Acta 41:366-7; Mokrasch L (1967) Use of 2,4,6-trinitrobenzenesulfonic acid for the coestimation of amines, amino acids, and proteins in mixtures. Anal Biochem 18:64-71). […] Samples were pelleted and the supernatant was filtered through a 0.22 μM filter. The sterile filtrate was added to sodium tetraborate and trinitrobenzenesulfonic acid and incubated for 30 minutes at room temperature. Samples were read at OD420. Lysine was used as a standard.

[4] = system: SA113 ΔtagO cell walls (staphylococcal peptidoglycan); test: cleavage analysis by mass spectrometry; assay type: biochemical, Staphylococcus aureus; details: 50 μg/ml, 18 hours, ESI-MS of digest
Method: Briefly, SA113 ΔtagO cell walls (Atilano M L et al. (2010) Teichoic acids are temporal and spatial regulators of peptidoglycan cross-linking in Staphylococcus aureus. Proc Natl Acad Sci USA 107(44):18991-6; Weidenmaier C et al. (2004) Role of teichoic acids in Staphylococcus aureus nasal colonization, a major risk factor in nosocomial infections. Nat Med 10(3):243-5) were digested in 25 mM Tris, 200 mM NaCl, pH 7.4 at 37° C. for 18 hours with 50 μg/ml of PlyGRCS, filtered through 5000-MW cutoff Vivaspin 500 units (Sartorius North America Inc., Bohemia, N.Y.), and desalted using C18 Zip Tips (Millipore, Zug, Switzerland). Controls included peptidoglycan digested with the amidase domain of 2638A, a known N-acetylmuramoyl-L-alanine amidase, or undigested peptidoglycan. To further define the PlyGRCS cut site, double digests with PlyGRCS and a truncation construct containing only the CHAP domain of LysK (CHAP-K), a D-alany-glycyl endopeptidase were performed. The samples were eluted from the Zip Tips with 50:50:0.01 (v/v/v) CH3OH:H2O:[…] (pH˜2), and NanoESI-MS analysis was performed on a Q-TOF Ultima API mass spectrometer (Micromass, UK).

[5] = circular dichroism melting experiments; assay type: physicochemical; details: 0.1 mg/ml, 20 mM sodium phosphate buffer pH 7, 20-95° C. at 1° C./min
Method: CD experiments for wild-type (WT) and active-site mutants were performed on a Chirascan CD spectrometer (Applied Photophysics) equipped with a thermoelectrically controlled cell holder. CD spectra were obtained in the far-UV range (190-260 nm) in a 1 mm path length quartz cuvette at 1 nm steps with 5 second signal averaging per data point. Spectra were collected in triplicate, followed by averaging, baseline subtraction, smoothing and conversion to mean residue ellipticity (MRE) by the Pro-Data software (Applied Photophysics). Secondary structure prediction was performed using the Provencher and Glockner method (Provencher S W & Glockner J (1981) Estimation of globular protein secondary structure from circular dichroism. Biochemistry 20(1):33-7) provided by DICHROWEB (Whitmore L & Wallace B A (2004) DICHROWEB, an online server for protein secondary structure analyses from circular dichroism spectroscopic data. Nucleic Acids Res 32:W668-73).
Melting experiments were performed by heating PlyGRCS at a 0.1 mg/ml concentration in 20 mM sodium phosphate buffer pH 7 from 20° C. to 95° C. using a 1° C./min heating rate. MRE was monitored at 218 nm in a 1 mm path length quartz cuvette at 0.5° C. steps with 5 second signal averaging per data point. The melting data was smoothed, normalized and fit with a Boltzmann sigmoidal curve. The first derivative of the melting curve was then taken to determine the temperature (Tm) at which the folded and unfolded protein species in solution were at equilibrium (Fallas J A & Hartgerink J D (2012) Computational design of self-assembling register-specific collagen heterotrimers. Nat Commun 3:1087).

[6] = system: stationary phase S. aureus NRS-14; test: kinetic stability (lytic assay after incubation at indicated temperatures); assay type: cell-based, Staphylococcus aureus; details: 25 μg/ml
Method: as §1
To determine dose response, PlyGRCS was serially diluted and each dosage (100 μl) was added in triplicate to a 96-well polystyrene microtiter plate (Nest Biotech Co, Ltd) just before addition of bacterial cells (100 μl) according to the turbidity reduction assay described above. For optimum pH determination, bacterial cells were suspended in 40 mM boric acid/phosphoric acid (BP) buffer, pH 3-11, and were challenged against PlyGRCS. The influence of NaCl on PlyGRCS activity was tested in BP buffer at the experimentally determined pH optimum using the same assay. The effect of divalent cations was determined using the turbidity reduction assay with several modifications. […] Kinetic stability was evaluated (Son B et al. (2012) Characterization of LysB4, an endolysin from the Bacillus cereus-infecting bacteriophage B4. BMC Microbiol 12:33) with minor modifications. […]

[7] = system: S. aureus NRS-14 static biofilms; test: biofilm assay (crystal violet staining); assay type: cell-based, Staphylococcus aureus; details: 6.25 μg/ml, 1 hour, 1 day biofilms
Method: An overnight culture of S. aureus NRS-14 (1 ml per well) was placed into 24-well CELLBIND plates (Corning) containing 500 μl of TSB per well. After an additional 24 hour incubation at 37° C., media was aspirated and samples were washed with PBS to remove unattached cells. Two-fold serial dilutions of PlyGRCS in triplicate were added in 1 ml BP buffer pH 7 and incubated at 37° C. for one hour. Liquid was aspirated and samples were washed with distilled water before drying. Biofilms were stained with 0.01% crystal violet for 10 min at room temperature. After removing the excess crystal violet, samples were washed with PBS and dried before the addition of 1 ml 10% SDS to extract the crystal violet from the biomass for quantification at OD595.

[8] = highest dose of 28 to 1.75 μg/ml dose response

B1: PlyGRCS: endolysin of bacteriophage GRCS (ORF15), amino acids 1-250, SEQ ID NO: 5, C-terminal 6× His tag (protein)
chain: MKSQQQAKEWIYKHEGTGVDFDGAYGFQCMDLAVAYVYYITDGKVRMWGNAKDAINNDFKGLATVYENTPSFKPQLGDVAVYTNSQYGHIQCVISGNLDYYTCLEQNWLGGGFDGWEKATIRTHYYDGVTHFIRPKFSASNSNVLETSKVNTFGNWKQNQYGTYYRNENATFTCGFLPIFARVGSPKLSEPNGYWFQPNGYTPYDEVCLSDGLVWIGYNWQGTRYYLPVRQWNGKTGNSYSIGLPWGVFS
modifications: C-terminal 6xHis tag; Synthetically generated polypeptide (PlyGRCS phage (S. aureus))
glycosidase activity (reducing sugar release) [1]: did not show any glycosidase activity | decrease in optical density ([2]; 25 μg/mL): 70% | lytic activity of EDTA-treated enzyme with excess CaCl2, compared to prior to EDTA treatment ([2]; 5 mM EDTA then 6 mM CaCl2): nearly twice the lytic activity | lytic activity of EDTA-treated enzyme with magnesium ([2]; 5 mM EDTA then 6 mM MgCl2): mimicked that of the EDTA-treated sample | lytic activity after EDTA treatment ([2]; 5 mM EDTA, 10 minutes): devoid of lytic activity | decrease in activity by NaCl ([2]; 500 mM NaCl, BP buffer pH 7.0): ~35% | optimal pH for lytic activity ([2]; BP buffer, pH range 3.0 to 11.0): 7.0 | time to 50% decrease in optical density [2, 8]: < 10 min | decrease in optical density [2, 8]: 70% | free amine release (amidase/endopeptidase activity) [3]: free amines were detected | hydrolytic activities (cleavage specificity) [4]: both N-acetylmuramoyl-L-alanine amidase and D-alanyl-glycyl endopeptidase hydrolytic activities | Tm [5]: 43.5 °C | residual lytic activity ([6]; after 30 minutes at 4° C. to 37° C.): > 90% | lytic activity after heating (in words) ([6]; after 30 minutes at ≧40° C.): lytic activity was not observed | decrease in biofilm biomass [7]: ~50%
